Data set [1] addresses T1, ParA_F (SopA) (plasmid F, UniProt P62556 1-388).
T1 sequence: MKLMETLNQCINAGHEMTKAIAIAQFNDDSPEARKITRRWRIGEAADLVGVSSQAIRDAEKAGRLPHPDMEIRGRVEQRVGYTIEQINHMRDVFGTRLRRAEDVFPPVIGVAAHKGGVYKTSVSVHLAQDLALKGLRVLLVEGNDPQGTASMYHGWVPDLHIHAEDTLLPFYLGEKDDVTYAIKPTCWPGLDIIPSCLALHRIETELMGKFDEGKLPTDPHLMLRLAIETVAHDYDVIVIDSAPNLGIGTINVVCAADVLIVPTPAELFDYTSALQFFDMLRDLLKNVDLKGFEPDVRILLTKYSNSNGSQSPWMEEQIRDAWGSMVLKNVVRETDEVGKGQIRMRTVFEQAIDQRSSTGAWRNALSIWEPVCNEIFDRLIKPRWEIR
Description: fluorescence titration. As to conditions: apparent Kd; EMSA: 30 mM HEPES-KOH pH 7.5, 150 mM KCl, 3 mM MgCl2, 1 mM DTT, 10% glycerol, 37 C; SPR: 20 mM Hepes-KOH pH 7.4, 100 mM KCl, 10 mM MgCl2, 1 mM DTT, 24 C; MST: ….

Data set [2] deals with ParB_F (SopB) (plasmid F). The data set is described as follows: EMSA. As to conditions: apparent Kd; EMSA: 30 mM HEPES-KOH pH 7.5, 150 mM KCl, 3 mM MgCl2, 1 mM DTT, 10% glycerol, 37 C; SPR: 20 mM Hepes-KOH pH 7.4, 100 mM KCl, 10 mM MgCl2, 1 mM DTT, 24 C; MST: ….
The target of data set [3] is T1, ParA_F (SopA). The data set is described as follows: SPR; 10 mM Mg2+, no nucleotide; 3 dimers per DNA; EMSA: 30 mM HEPES-KOH pH 7.5, 150 mM KCl, 3 mM MgCl2, 1 mM DTT, 10% glycerol, 37 C; SPR: 20 mM Hepes-KOH pH 7.4, 100 mM KCl, 10 mM MgCl2, 1 mM DTT, 24 C; MST: 10 mM Tris-HCl pH 8, 150 mM NaCl, 50 mM CaCl2, 0.05% Tween 20, 20 mg/mL BSA, 25 C. As to conditions: protein: recombinant; tags: none (native); chain copies: 2; label: biotin.

Data set [4] deals with the molecule itself. The data set is described as follows: SEC; analytical gel filtration on a calibrated Superdex 75 10/300GL column; ParAF 4 µM in buffer E (50 mM bis-Tris pH 6, 400 mM NaCl, 0.5 mM DTT), with or without 1 mM ADP; one peak at 9.5 mL.
Data set [5] concerns the target T1, ParA_F (SopA). The data set is described as follows: SPR; EMSA: 30 mM HEPES-KOH pH 7.5, 150 mM KCl, 3 mM MgCl2, 1 mM DTT, 10% glycerol, 37 C; SPR: 20 mM Hepes-KOH pH 7.4, 100 mM KCl, 10 mM MgCl2, 1 mM DTT, 24 C; MST: 10 mM Tris-HCl pH 8, 150 mM NaCl, 50 mM CaCl2, 0.05% Tween 20, 20 mg/mL BSA, 25 C. As to conditions: protein: recombinant; tags: none (native); chain copies: 2; label: biotin.

Data set [6] concerns the target T1, ParA_F (SopA). The data set is described as follows: EMSA; 3 uM ParA_F; EMSA: 30 mM HEPES-KOH pH 7.5, 150 mM KCl, 3 mM MgCl2, 1 mM DTT, 10% glycerol, 37 C; SPR: 20 mM Hepes-KOH pH 7.4, 100 mM KCl, 10 mM MgCl2, 1 mM DTT, 24 C; MST: 10 mM Tris-HCl pH 8, 150 mM NaCl, 50 mM CaCl2, 0.05% Tween 20, 20 mg/mL BSA, 25 C. As to conditions: protein: recombinant; tags: none (native); chain copies: 2; label: 5' Cy3.

Data set [7] concerns the target T1, ParA_F (SopA). The data set is described as follows: SPR; 1 uM ParA_F, no nucleotide; EMSA: 30 mM HEPES-KOH pH 7.5, 150 mM KCl, 3 mM MgCl2, 1 mM DTT, 10% glycerol, 37 C; SPR: 20 mM Hepes-KOH pH 7.4, 100 mM KCl, 10 mM MgCl2, 1 mM DTT, 24 C; MST: 10 mM Tris-HCl pH 8, 150 mM NaCl, 50 mM CaCl2, 0.05% Tween 20, 20 mg/mL BSA, 25 C. As to conditions: protein: recombinant; tags: none (native); chain copies: 2; label: biotin.

The target of data set [8] is T1, ParA_F (SopA). Description: fluorescence titration; apparent Kd; EMSA: 30 mM HEPES-KOH pH 7.5, 150 mM KCl, 3 mM MgCl2, 1 mM DTT, 10% glycerol, 37 C; SPR: 20 mM Hepes-KOH pH 7.4, 100 mM KCl, 10 mM MgCl2, 1 mM DTT, 24 C; MST: 10 mM Tris-HCl pH 8, 150 mM NaCl, 50 mM CaCl2, 0.05% Tween 20, 20 mg/mL BSA, 25 C. The conditions noted are these: protein: recombinant; tags: none (native); chain copies: 2; label: 5' Cy3.

The target of data set [9] is T1, ParA_F (SopA). Description: MST; no nucleotide; EMSA: 30 mM HEPES-KOH pH 7.5, 150 mM KCl, 3 mM MgCl2, 1 mM DTT, 10% glycerol, 37 C; SPR: 20 mM Hepes-KOH pH 7.4, 100 mM KCl, 10 mM MgCl2, 1 mM DTT, 24 C; MST: 10 mM Tris-HCl pH 8, 150 mM NaCl, 50 mM CaCl2, 0.05% Tween 20, 20 mg/mL BSA, 25 C. As to conditions: protein: recombinant; tags: none (native); chain copies: 2; label: 5' Cy3.

For data set [10], the target named is T1, ParA_F (SopA). The data set is described as follows: fluorescence titration; EMSA: 30 mM HEPES-KOH pH 7.5, 150 mM KCl, 3 mM MgCl2, 1 mM DTT, 10% glycerol, 37 C; SPR: 20 mM Hepes-KOH pH 7.4, 100 mM KCl, 10 mM MgCl2, 1 mM DTT, 24 C; MST: 10 mM Tris-HCl pH 8, 150 mM NaCl, 50 mM CaCl2, 0.05% Tween 20, 20 mg/mL BSA, 25 C. The conditions noted are these: protein: recombinant; tags: none (native); chain copies: 2; label: 5' Cy3.

Data set [11] has as its target T1, ParA_F (SopA). The data set is described as follows: EMSA; 3 mM Mg2+, apparent Kd; EMSA: 30 mM HEPES-KOH pH 7.5, 150 mM KCl, 3 mM MgCl2, 1 mM DTT, 10% glycerol, 37 C; SPR: 20 mM Hepes-KOH pH 7.4, 100 mM KCl, 10 mM MgCl2, 1 mM DTT, 24 C; MST: 10 mM Tris-HCl pH 8, 150 mM NaCl, 50 mM CaCl2, 0.05% Tween 20, 20 mg/mL BSA, 25 C. The conditions noted are these: protein: recombinant; tags: none (native); chain copies: 2; label: 5' Cy3.

Data set [12] concerns the target T1, ParA_F (SopA). Description: EMSA; equimolar ParB_F; estimate close to the probe concentration; no supershift; EMSA: 30 mM HEPES-KOH pH 7.5, 150 mM KCl, 3 mM MgCl2, 1 mM DTT, 10% glycerol, 37 C; SPR: 20 mM Hepes-KOH pH 7.4, 100 mM KCl, 10 mM MgCl2, 1 mM DTT, 24 C; MST: 10 mM Tris-HCl pH 8, 150 mM NaCl, 50 mM CaCl2, 0.05% Tween 20, 20 mg/mL BSA, 25 C. As to conditions: protein: recombinant; tags: none (native); chain copies: 2; label: 5' Cy3.

For 75-bp probe with motifs #1 and #3, the Kd in [1] amounted to 1200 nM.
Turning to “120-bp Cy3 probe for ParB_F (non-specific)”, the Kd in [2] was determined as 1000 nM.

B1: PparAB_F 136-bp (dsDNA)
DNA 1: ATCTCCTTTTGTAGTGTTGCTCTTATTTTAAACAACTTTGCGGTTTTTTGATGACTTTGCGATTTTGTTGTTGCTTTGCAGTAAATTGCAAGATTTAATAAAAAAACGCAAAGCAATGATTAAAGGATGTTCAGAA
DNA 2: TTCTGAACATCCTTTAATCATTGCTTTGCGTTTTTTTATTAAATCTTGCAATTTACTGCAAAGCAACAACAAAATCGCAAAGTCATCAAAAAACCGCAAAGTTGTTTAAAATAAGAGCAACACTACAAAAGGAGAT
In the case of B1, in [3], the binding result is reported as “binds”.

B2: ParAF (ParA of the Escherichia coli plasmid F partition system ParABSF) (natural protein, UniProt P62556 1-388, looked up)
chain: MKLMETLNQCINAGHEMTKAIAIAQFNDDSPEARKITRRWRIGEAADLVGVSSQAIRDAEKAGRLPHPDMEIRGRVEQRVGYTIEQINHMRDVFGTRLRRAEDVFPPVIGVAAHKGGVYKTSVSVHLAQDLALKGLRVLLVEGNDPQGTASMYHGWVPDLHIHAEDTLLPFYLGEKDDVTYAIKPTCWPGLDIIPSCLALHRIETELMGKFDEGKLPTDPHLMLRLAIETVAHDYDVIVIDSAPNLGIGTINVVCAADVLIVPTPAELFDYTSALQFFDMLRDLLKNVDLKGFEPDVRILLTKYSNSNGSQSPWMEEQIRDAWGSMVLKNVVRETDEVGKGQIRMRTVFEQAIDQRSSTGAWRNALSIWEPVCNEIFDRLIKPRWEIR
notes: native protein; also called SopA; source: E. coli strain DLT812 derivative carrying pDAG127 (ParaBAD::parAF), purified (heparin, Superdex 200, mono-Q)
As for B2, in [4], the “stoichiometry N” value came out at 2.

B3: PparAB_F 58-bp (IR3-4) (dsDNA)
DNA 1: TTGTTGTTGCTTTGCAGTAAATTGCAAGATTTAATAAAAAAACGCAAAGCAATGATTA
DNA 2: TAATCATTGCTTTGCGTTTTTTTATTAAATCTTGCAATTTACTGCAAAGCAACAACAA
In the case of B3, the binding result in data set [5] was “no binding”.

B4: 120-bp IR2-2* (perfect IR in the middle) (dsDNA)
DNA 1: GTAGTGTTGCTCTTATTTTAAACAATCAGTAGGTTTTTTGATGACTTTGCGATTTTGTTGTTGTCAGTAAGTAAATTGCAAAGTTTAATAAAAAAACTCAGTACAATGATTAAAGGATGT
DNA 2: ACATCCTTTAATCATTGTACTGAGTTTTTTTATTAAACTTTGCAATTTACTTACTGACAACAACAAAATCGCAAAGTCATCAAAAAACCTACTGATTGTTTAAAATAAGAGCAACACTAC
For the molecule B4, the binding result in data set [6] is “no binding”.

B5: 120-bp IR2-2*4 (dsDNA)
DNA 1: GTAGTGTTGCTCTTATTTTAAACAATCAGTAGGTTTTTTGATGACTTTGCGATTTTGTTGTTGTCAGTAAGTAAATTGCAAAGTTTAATAAAAAAACGCAAAGCAATGATTAAAGGATGT
DNA 2: ACATCCTTTAATCATTGCTTTGCGTTTTTTTATTAAACTTTGCAATTTACTTACTGACAACAACAAAATCGCAAAGTCATCAAAAAACCTACTGATTGTTTAAAATAAGAGCAACACTAC
B5: in [6], the binding result was “no binding”.

B6: nsDNA 136-bp (dsDNA)
DNA 1: CAGTGAATTGTAATACGACTCACTATAGGGCGAATTGGAGCTCCACCGCGGTGGCGGCCGCTCTAGAACTAGTGGATCCCCCGGGCTGCAGGAATTCGATATCAAGCTTATCGATACCGTCGACCTCGAGGGGGGG
DNA 2: CCCCCCCTCGAGGTCGACGGTATCGATAAGCTTGATATCGAATTCCTGCAGCCCGGGGGATCCACTAGTTCTAGAGCGGCCGCCACCGCGGTGGAGCTCCAATTCGCCCTATAGTGAGTCGTATTACAATTCACTG
Regarding B6, the binding result in data set [7] was “no binding”.

B7: 80-bp IR3-4 probe (dsDNA)
DNA 1: GGTTTTTTGATGAGTCTCTGATTTTGTTGTTGCTTTGCAGTAAATTCAGAGATTTAATAAAAAAACGCAAAGCAATGATT
DNA 2: AATCATTGCTTTGCGTTTTTTTATTAAATCTCTGAATTTACTGCAAAGCAACAACAAAATCAGAGACTCATCAAAAAACC
On to B7, for which, in data set [8], the Kd was found to be 500 ± 325 nM.

B8: PparAB_F 120-bp (motifs 122'34) (dsDNA)
DNA 1: GTAGTGTTGCTCTTATTTTAAACAACTTTGCGGTTTTTTGATGACTTTGCGATTTTGTTGTTGCTTTGCAGTAAATTGCAAGATTTAATAAAAAAACGCAAAGCAATGATTAAAGGATGT
DNA 2: ACATCCTTTAATCATTGCTTTGCGTTTTTTTATTAAATCTTGCAATTTACTGCAAAGCAACAACAAAATCGCAAAGTCATCAAAAAACCGCAAAGTTGTTTAAAATAAGAGCAACACTAC
Take B8: the Kd in [9] is 140 ± 23 nM; in data set [10] it was 130 nM; in data set [11], 85 ± 20 nM; in data set [12] it was roughly 10 nM.
